Reference: paper PMC6821171, “LYAR potentiates rRNA synthesis by recruiting BRD2/4 and the MYST-type acetyltransferase KAT7 to rDNA” (Nucleic Acids Research, 2019)

Biological target: T1, peptide LYAR_(175-219) (human, UniProt Q9NX58 175-219)
T1 construct: LYAR, human, residues 175-219
Test: ITC; peptide BRD2 489-540 with peptide LYAR 175-219 (Supplementary Figure S5E)
Conditions: both partners purified

stoichiometry N: 1
B1: peptide BRD2_(489-540) (peptide, UniProt P25440 489-540, looked up)
peptide: SSSEEEEEEDEEDEEEEESESSDSEEERAHRLAELQEQLRAVHEQLAALSQG
notes: Bromodomain-containing protein 2, human, residues 489-540
